According to patent publication US20040053822A1 (published 2004):

B1: MAGE2 peptide, position 15, 9 amino acids (peptide)
peptide: GLEARGEAL
B2: MAGE2.202 (15-mer) (peptide)
peptide: LIIVLAIIAIEGDCA
B3: MAGE2.201 (15-mer) (peptide)
peptide: LLIIVLAIIAIEGDC
B4: IIAIEGDCAPEEKIW (peptide)
peptide: IIAIEGDCAPEEKIW
B5: MAGE3 peptide, position 15, 9 amino acids (peptide)
peptide: GLEARGEAL
B6: MAGE3.71.F1 FPTTMNYPL (peptide)
peptide: FPTTMNYPL
B7: MAGE3.71.F1I9 FPTTMNYPI (peptide)
peptide: FPTTMNYPI
B8: MAGE3.296.F1I9 FPHISYPPI (peptide)
peptide: FPHISYPPI
B9: MAGE3.77.F1 FPLWSQSI (peptide)
peptide: FPLWSQSI
B10: MAGE2.274.F1I11 FPRALIETSYI (peptide)
peptide: FPRALIETSYI
B11: MAGE2.274.F1 FPRALIETSYV (peptide)
peptide: FPRALIETSYV
B12: MAGE3.274.F1I11 FPRALVETSYI (peptide)
peptide: FPRALVETSYI
B13: MAGE3.196.F1 FPKAGLLIIV (peptide)
peptide: FPKAGLLIIV
B14: MAGE3.196.F1I10 FPKAGLLIII (peptide)
peptide: FPKAGLLIII
B15: MAGE3.64.F1 FPQGASSI (peptide)
peptide: FPQGASSI
B16: MAGE3.170.F1 FPIGHLYIFA (peptide)
peptide: FPIGHLYIFA
B17: MAGE3.170.F1I10 FPIGHLYIFI (peptide)
peptide: FPIGHLYIFI
B18: MAGE3.196.F1I8 FPKAGLLI (peptide)
peptide: FPKAGLLI
B19: MAGE2.196.F1I8 FPKTGLLI (peptide)
peptide: FPKTGLLI
B20: MAGE3.170.F1I9 FPIGHLYII (peptide)
peptide: FPIGHLYII
B21: MAGE3.71.F1 FPTTMNYPLW (peptide)
peptide: FPTTMNYPLW
B22: MAGE3.274.F1 FPRALVETSYV (peptide)
peptide: FPRALVETSYV
B23: MAGE2.296.F1 FPHISYPPL (peptide)
peptide: FPHISYPPL
B24: MAGE3.174 11-mer HLYIFATCLGL (peptide)
peptide: HLYIFATCLGL
B25: MAGE3.112L2 KLAELVHFL (peptide)
peptide: KLAELVHFL
B26: MAGE3.112M2V9 KMAELVHFV (peptide)
peptide: KMAELVHFV
B27: MAGE2.220 9-mer KIWEELSML (peptide)
peptide: KIWEELSML
B28: MAGE2.277 10-mer ALIETSYVKV (peptide)
peptide: ALIETSYVKV
B29: MAGE3.112L2V9 KLAELVHFV (peptide)
peptide: KLAELVHFV

These binders were tested against HLA-A*0201 (human) (assay: competition with 125I-labelled probe peptide for purified HLA-A*0201).

| relative binding ratio [ratio] | Binder |
| --- | --- |
| 0.0001 | B1 |

Each binder was assayed against HLA-DRB1*0101 (human) (assay: inhibition of 125I-probe binding to purified HLA-DR).

| IC50 [nM] | Binder |
| --- | --- |
| ≤ 1000 | B2 |
| ≤ 1000 | B3 |

What follows are binders tested against HLA-DRB1*0301 (human) (assay: inhibition of 125I probe peptide binding to purified HLA).

| relative binding ratio | Binder |
| --- | --- |
| 0.066 IC50 standard/IC50 peptide | B4 |

What follows are binders tested against HLA-A*0201 (human) (assay: competition with 125I probe peptide, purified HLA, gel filtration).

| relative binding ratio | Binder |
| --- | --- |
| 0.0001 ratio (IC50 standard / IC50 test peptide) | B5 |

What follows are binders tested against HLA-B*5301 (human) (assay: competition vs 125I probe peptide, purified HLA).

| IC50 [nM] | Binder |
| --- | --- |
| 39 | B6 |
| 8.5 | B7 |
| 233 | B8 |
| 245 | B9 |
| 465 | B10 |
| 7750 | B11 |
| 620 | B12 |
| 4650 | B13 |
| 846 | B14 |
| 3000 | B15 |
| 179 | B16 |
| 8.5 | B17 |
| 775 | B18 |
| 3320 | B19 |

These binders were tested against HLA-B*5401 (human) (assay: competition vs 125I probe peptide, purified HLA).

| IC50 [nM] | Binder |
| --- | --- |
| 3 | B6 |
| 1.5 | B7 |
| 1.4 | B8 |
| 127 | B10 |
| 59 | B12 |
| 0.6 | B20 |
| 1.1 | B13 |
| 400 | B15 |
| 0.4 | B16 |
| 46 | B18 |

What follows are binders tested against HLA-B*0702 (human) (assay: competition vs 125I probe peptide, purified HLA).

| IC50 [nM] | Binder |
| --- | --- |
| 6.4 | B6 |
| 59 | B7 |
| 122 | B9 |
| 220 | B21 |
| 7.4 | B10 |
| 220 | B13 |
| 39 | B16 |
| 134 | B19 |

These binders were tested against HLA-B*3501 (human) (assay: competition vs 125I probe peptide, purified HLA).

| IC50 [nM] | Binder |
| --- | --- |
| 4.5 | B6 |
| 360 | B8 |
| 1010 | B9 |
| 3600 | B10 |
| 4500 | B11 |
| 5540 | B12 |
| 4240 | B22 |
| 878 | B13 |
| 51 | B16 |
| 139 | B17 |

Each binder was assayed against HLA-B*5101 (human) (assay: competition vs 125I probe peptide, purified HLA).

| IC50 [nM] | Binder |
| --- | --- |
| 423 | B6 |
| 177 | B23 |
| 70 | B10 |
| 128 | B11 |
| 5 | B20 |
| 190 | B13 |
| 65 | B14 |
| 56 | B16 |

These binders were tested against HLA-A*0201 (human) (assay: competition with 125I probe peptide, purified HLA).

| IC50 [nM] | Binder |
| --- | --- |
| 56 | B24 |

The binders below were run against HLA-A*0203 (human) (assay: competition with 125I probe peptide, purified HLA).

| IC50 [nM] | Binder |
| --- | --- |
| 5.9 | B25 |
| 46 | B26 |
| 175 | B27 |

The binders below were run against HLA-A*0202 (human) (assay: competition with 125I probe peptide, purified HLA).

| IC50 [nM] | Binder |
| --- | --- |
| 741 | B24 |
| 729 | B28 |
| 642 | B27 |

Each binder was assayed against HLA-A*6802 (human) (assay: competition with 125I probe peptide, purified HLA).

| IC50 [nM] | Binder |
| --- | --- |
| 3080 | B28 |
| 400 | B25 |
| 73 | B29 |

What follows are binders tested against HLA-A*0206 (human) (assay: competition with 125I probe peptide, purified HLA).

| IC50 [nM] | Binder |
| --- | --- |
| 1950 | B28 |
| 39 | B26 |

Target: HLA-DRB1*0301 (human)
Test: inhibition of 125I probe peptide binding to purified HLA
Remark: another data set of the same source

| relative binding ratio | Binder |
| --- | --- |
| 0.066 IC50 standard/IC50 peptide | B4 |
